Measurements taken from IntAct's records for PubMed 22854040.

B1: Ras-related protein Rab-8A (Homo sapiens), P61006 (parent)
chain: MAKTYDYLFKLLLIGDSGVGKTCVLFRFSEDAFNSTFISTIGIDFKIRTIELDGKRIKLQIWDTAGQERFRTITTAYYRGAMGIMLVYDITNEKSFDNIRNWIRNIEEHASADVEKMILGNKCDVNDKRQVSKERGEKLALDYGIKFMETSAKANINVENAFFTLARDIKAKMDKKLEGNSPQGSNQGVKITPDQQKRSSFFRCVLL

Variants of: B1
Conditions: with tfr1_human TFRC

| Variant | effect of a mutation on the interaction |
| --- | --- |
| T22N | decreasing interaction |
